Blank lines part the entries; values can stand above or below the molecule they belong to.
Tests used:
recombinant inhibin A = recombinant inhibin A (UniProt P05111); assay: cell-based or functional assay
[1] = biological target: HA-tagged endoglin (endoglin-L) (UniProt P17813); assay: patch/FRAP on live COS7 cells; HA-endoglin immobilized by IgG cross-linking, Fab'-labeled myc-ALK1 measured; no inhibin
[2] = biological target: HA-tagged endoglin (endoglin-L) (UniProt P17813); assay: patch/FRAP on live COS7 cells; HA-endoglin immobilized by IgG cross-linking, Fab'-labeled myc-ALK1 measured; in the presence of 4 nM inhibin A
[3] = biological target: T1, endoglin on HMEC-1 human microvascular endothelial cells (human) (UniProt P17813); assay: cell-based or functional assay
T1 sequence (looked up): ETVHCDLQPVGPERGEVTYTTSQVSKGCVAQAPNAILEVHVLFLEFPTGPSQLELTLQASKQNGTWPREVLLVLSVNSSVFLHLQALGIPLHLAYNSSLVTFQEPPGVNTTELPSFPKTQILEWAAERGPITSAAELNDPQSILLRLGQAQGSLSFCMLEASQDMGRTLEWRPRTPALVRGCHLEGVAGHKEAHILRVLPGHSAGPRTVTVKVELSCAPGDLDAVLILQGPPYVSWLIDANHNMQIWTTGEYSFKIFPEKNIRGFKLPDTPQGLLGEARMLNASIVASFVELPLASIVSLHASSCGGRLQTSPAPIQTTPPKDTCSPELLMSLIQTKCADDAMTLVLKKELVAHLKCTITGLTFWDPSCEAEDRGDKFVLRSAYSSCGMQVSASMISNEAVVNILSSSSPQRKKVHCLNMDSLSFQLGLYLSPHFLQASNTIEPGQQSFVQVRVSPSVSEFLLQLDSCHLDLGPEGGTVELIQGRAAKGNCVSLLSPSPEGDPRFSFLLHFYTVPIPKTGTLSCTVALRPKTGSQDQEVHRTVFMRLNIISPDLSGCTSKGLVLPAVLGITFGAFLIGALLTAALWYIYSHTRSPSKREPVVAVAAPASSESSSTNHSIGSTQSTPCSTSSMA

Chain of UniProt P05111 (P05111 233-366 limits assumed, chain 1 of 2): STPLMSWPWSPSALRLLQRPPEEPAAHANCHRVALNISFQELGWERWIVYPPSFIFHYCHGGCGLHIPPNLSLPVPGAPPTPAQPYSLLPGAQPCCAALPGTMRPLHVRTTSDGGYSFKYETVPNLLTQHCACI
Chain of UniProt P05111 (P08476 311-426 limits assumed, chain 2 of 2, further chain): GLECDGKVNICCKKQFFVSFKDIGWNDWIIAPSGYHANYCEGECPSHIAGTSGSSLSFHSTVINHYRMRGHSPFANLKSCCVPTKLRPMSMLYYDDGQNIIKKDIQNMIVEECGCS

fold decrease in inhibin A induced permeability of HMEC-1 monolayer at 4 h (FITC-dextran), 10 ng/mL ALK1-Fc (recombinant inhibin A): 1.5 times
Molecule: ALK1-Fc, a human chimeric ALK1 protein (from UniProt P37023 22-118) (Fc fusion)

reduction in Rf (mobile fraction) [1]: 45%
reduction in Rf (mobile fraction) [2]: 70%
Molecule: myc-tagged ALK1 (from UniProt P37023 22-503) (receptor)

fold decrease in inhibin A induced permeability of HMEC-1 monolayer at 4 h (FITC-dextran), 100 µg/mL TRC105 [3]: 2.2 times
B1: Tracon 105 (TRC105), a humanized endoglin monoclonal antibody (antibody, INN chains, looked up, V domains shown)
VH: EVKLEESGGGLVQPGGSMKLSCAASGFTFSDAWMDWVRQSPEKGLEWVAEIRSKASNHATYYAESVKGRFTISRDDSKSSVYLQMNSLRAEDTGIYYCTRWRRFFDSWGQGTTLTVSS
VL: QIVLSQSPAILSASPGEKVTMTCRASSSVSYMHWYQQKPGSSPKPWIYATSNLASGVPVRFSGSGSGTSYSLTISRVEAEDAATYYCQQWSSNPLTFGAGTKLELK

Source: patent publication US20240409627A1
